Data as given in US7173007.

Molecular target: T1, recombinant full-length hCAP18/LL-37 (residues 31-170)
T1 chain: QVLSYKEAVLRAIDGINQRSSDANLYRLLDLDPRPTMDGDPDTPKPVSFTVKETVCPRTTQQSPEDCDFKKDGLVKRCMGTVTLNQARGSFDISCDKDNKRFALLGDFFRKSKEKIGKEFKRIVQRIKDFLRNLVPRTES

B1: human neutrophil elastase (Calbiochem) (protein)
chain: IVGGRRARPHAWPFMVSLQLRGGHFCGATLIAPNFVMSAAHCVANVNVRAVRVVLGAHNLSRREPTRQVFAVQRIFENGYDPVNLLNDIVILQLNGSATINANVQVAQLPAQGRRLGNGVQCLAMGWGLLGRNRGIASVLQELNVTVVTSLCRRSNVCTLVRGRQAGVCFGDSGSPLVCNGLIHGIASFVRGGCASGLYPDAFAPVAQFVNWIDSIIQ
proteolytic processing of hCAP18/LL-37 (SDS-PAGE and immunoblot): Elastase treatment generated a band migrating at the same size as synthetic LL-37, and a band at 14 kDa
